# Assay results as given in US20240360208A1 (Hoffmann-La Roche, published 2024).
# T1: human FcγRIIb receptor on CHO-K1 cells (clone 223) (human, UniProt P31994 43-310)
# T1 sequence (looked up): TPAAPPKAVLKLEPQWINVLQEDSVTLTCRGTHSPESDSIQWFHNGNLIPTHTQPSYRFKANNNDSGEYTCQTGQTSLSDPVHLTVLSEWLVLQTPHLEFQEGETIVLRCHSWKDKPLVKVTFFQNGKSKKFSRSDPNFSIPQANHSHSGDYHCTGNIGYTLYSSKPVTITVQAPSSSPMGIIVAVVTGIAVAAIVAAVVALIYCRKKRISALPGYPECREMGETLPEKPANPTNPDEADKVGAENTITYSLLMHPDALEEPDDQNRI
# Molecular target: T2, human CCL2 (MCP1) - wild type (wt) (human, UniProt P13500 24-99)
# T2 construct: Made in-house or bought (R&D Systems 279-MC), depending on the assay; can form dimers; also called wt human CCL2; WT human CCL2
# Assay: SPR, C1 chip, anti-human Fc capture, 25 C, pH 7.4, Langmuir 1:1
# Experimental: The sample and system buffer was PBS-T (10 mM phosphate buffered saline including 0.05% Tween20) pH 7.4. The flow cell was set to 25° C.—and the sample block set to 12° C.—and primed with running buffer twice. The bispecific antibody was captured by injecting a 2 μg/ml solution for 60 see at a flow rate of 10 μl/min. Association was measured by injection of human CCL2 (wt) in various concentrations in solution for 150 see at a flow rate of 30 μl/min starting with 30 nM in 1:10 dilutions. The dissociation phase was monitored for up to 1200 sec and triggered by switching from the sample solution to running buffer. […] Bulk refractive index differences were corrected by subtracting the response obtained from a goat anti human IgG Fc surface. Blank injections are also subtracted (=double referencing). For calculation of kinetic parameters, the Langmuir 1:1 model was used.
row,binding result,Binder
1,binds,"ABN912//11K2-WT IgG1 (bispecific antibody, V domains shown, CrossMab, wild type IgG1 with knobs-into-holes; crossed arm humanized 11K2, non-crossed arm ABN912; also called CCL2-0047; P1AA3447) VH 1: QVQLVQSGAEVKKPGSSVKVSCKASGLTISDTYMHWVRQAPGQGLEWMGRIDPANGNTKFDPKFQGRVTITADTSTSTAYMELSSLRSEDTAVYYCARGVFGFFDYWGQGTTVTVSS VL 1: DIQMTQSPSSLSASVGDRVTITCKATEDIYNRLAWYQQKPGKAPKLLISGATSLETGVPSRFSGSGSGTDYTLTISSLQPEDFATYYCQQFWSAPYTFGGGTKVEIK VH 2: EVQLVQSGGGLVQPGGSLRLSCAASGFTFSHYWMSWVRQAPGKGLEWLANIEQDGSEKYYVDSVKGRFTISRDNAKNSLYLQMNSLRAEDTAVYFCARDLEGLHGDGYFDLWGRGTLVTVSS VL 2: AIQLTQSPSSLSASVGDRVILTCRASQGVSSALAWYQQKPGKAPKLLIYDASSLESGVPSRFSGSGSGPDFTLTISSLQPEDFATYFCQQFNSYPLTFGGGTKVEIK"
2,binds,"11K2//2F6-PGLALA (bispecific antibody, V domains shown, CrossMab, IgG1 with L234A, L235A, P329G, knobs-into-holes; crossed arm humanized 11K2, non-crossed arm 2F6; also called CCL2-0053; P1AA3450) VH 1: QVQLVQSGAEVKKPGSSVKVSCKASGLTISDTYMHWVRQAPGQGLEWMGRIDPANGNTKFDPKFQGRVTITADTSTSTAYMELSSLRSEDTAVYYCARGVFGFFDYWGQGTTVTVSS VL 1: DIQMTQSPSSLSASVGDRVTITCKATEDIYNRLAWYQQKPGKAPKLLISGATSLETGVPSRFSGSGSGTDYTLTISSLQPEDFATYYCQQFWSAPYTFGGGTKVEIK VH 2: QSLEESGGGLVQPEGSLTLTCTASGFSFNNNYYMCWVRQAPGKGLEWIGCISTDDSNTHYASWAQGRFTISKASSTALTLQVAGLTVADMATYFCARDAHFTSYGYGFDLWGPGTLVTVSS VL 2: DIVMTQTPASVSAAVGGTVSINCRASEDIENLVAWYQQKPGQPPKLLIYQASKLASGVPSRFKGSGSGAEFTLTIGDLESADAATYYCQGDYGSGWIMYSFGGGTDLVVK"
3,binds,"11K2//2F6-WT IgG1 (bispecific antibody, V domains shown, CrossMab, wild type IgG1 with knobs-into-holes; crossed arm humanized 11K2, non-crossed arm 2F6; also called CCL2-0056; P1AA3392) VH 1: QVQLVQSGAEVKKPGSSVKVSCKASGLTISDTYMHWVRQAPGQGLEWMGRIDPANGNTKFDPKFQGRVTITADTSTSTAYMELSSLRSEDTAVYYCARGVFGFFDYWGQGTTVTVSS VL 1: DIQMTQSPSSLSASVGDRVTITCKATEDIYNRLAWYQQKPGKAPKLLISGATSLETGVPSRFSGSGSGTDYTLTISSLQPEDFATYYCQQFWSAPYTFGGGTKVEIK VH 2: QSLEESGGGLVQPEGSLTLTCTASGFSFNNNYYMCWVRQAPGKGLEWIGCISTDDSNTHYASWAQGRFTISKASSTALTLQVAGLTVADMATYFCARDAHFTSYGYGFDLWGPGTLVTVSS VL 2: DIVMTQTPASVSAAVGGTVSINCRASEDIENLVAWYQQKPGQPPKLLIYQASKLASGVPSRFKGSGSGAEFTLTIGDLESADAATYYCQGDYGSGWIMYSFGGGTDLVVK"
4,binds,"1A5//1G9-PGLALA (bispecific antibody, V domains shown, CrossMab, IgG1 with L234A, L235A, P329G, knobs-into-holes; crossed arm 1A5, non-crossed arm 1G9; also called CCL2-0046; P1AA3444) VH 1: QEQLVESGGDLVKPEGSLTLTCTASGFSFSTSYWMCWVRQAPGKGLELIACISSSIGVTYYASWAEGRFTISKTSSTTVTLQMTSLTVADTATYFCARTTDDNWNVGFNLWGPGTLVTVSS VL 1: AYDMTQTPASVEVGVGGTVTIKCQASQSIGNRYLSWYQQKPGQPPKLLIYGTSTLASGVSSRFKGSGSGTQFTLTISGVESADSATYYCQQGATISYLDNAFGGGTEVVVK VH 2: QSLEESGGDLVKPGASLTLTCKASGIDFSLYSYMCWVRQAPGKGLEWIACVDAGASGSTYYASWAKGRFTISKTSSTTVTLQMTSLTAADTATYFCARGILYYTWPYPAGAIDAFDSWGPGTLVTVSS VL 2: AYDMTQTPASVSEPVGGTVTIKCQASESISNYLSWYQQKPGQPPKLLIYKASTLASGVPSRFKGSGSGTEYTVTISGVQSDDAATYYCQQSYSSSNVFNTFGGGTEVVVK"
5,binds,"1A5//1G9-WT IgG1 (bispecific antibody, V domains shown, CrossMab, wild type IgG1 with knobs-into-holes; crossed arm 1A5, non-crossed arm 1G9; also called CCL2-0052; P1AA3446) VH 1: QEQLVESGGDLVKPEGSLTLTCTASGFSFSTSYWMCWVRQAPGKGLELIACISSSIGVTYYASWAEGRFTISKTSSTTVTLQMTSLTVADTATYFCARTTDDNWNVGFNLWGPGTLVTVSS VL 1: AYDMTQTPASVEVGVGGTVTIKCQASQSIGNRYLSWYQQKPGQPPKLLIYGTSTLASGVSSRFKGSGSGTQFTLTISGVESADSATYYCQQGATISYLDNAFGGGTEVVVK VH 2: QSLEESGGDLVKPGASLTLTCKASGIDFSLYSYMCWVRQAPGKGLEWIACVDAGASGSTYYASWAKGRFTISKTSSTTVTLQMTSLTAADTATYFCARGILYYTWPYPAGAIDAFDSWGPGTLVTVSS VL 2: AYDMTQTPASVSEPVGGTVTIKCQASESISNYLSWYQQKPGQPPKLLIYKASTLASGVPSRFKGSGSGTEYTVTISGVQSDDAATYYCQQSYSSSNVFNTFGGGTEVVVK"
6,binds,"11K2//1G9-WT IgG1 (bispecific antibody, V domains shown, CrossMab, wild type IgG1 with knobs-into-holes; crossed arm humanized 11K2, non-crossed arm 1G9; also called CCL2-0049; P1AA3461) VH 1: QVQLVQSGAEVKKPGSSVKVSCKASGLTISDTYMHWVRQAPGQGLEWMGRIDPANGNTKFDPKFQGRVTITADTSTSTAYMELSSLRSEDTAVYYCARGVFGFFDYWGQGTTVTVSS VL 1: DIQMTQSPSSLSASVGDRVTITCKATEDIYNRLAWYQQKPGKAPKLLISGATSLETGVPSRFSGSGSGTDYTLTISSLQPEDFATYYCQQFWSAPYTFGGGTKVEIK VH 2: QSLEESGGDLVKPGASLTLTCKASGIDFSLYSYMCWVRQAPGKGLEWIACVDAGASGSTYYASWAKGRFTISKTSSTTVTLQMTSLTAADTATYFCARGILYYTWPYPAGAIDAFDSWGPGTLVTVSS VL 2: AYDMTQTPASVSEPVGGTVTIKCQASESISNYLSWYQQKPGQPPKLLIYKASTLASGVPSRFKGSGSGTEYTVTISGVQSDDAATYYCQQSYSSSNVFNTFGGGTEVVVK"
7,binds,"1A5//2F6-PGLALA (bispecific antibody, V domains shown, CrossMab, IgG1 with L234A, L235A, P329G, knobs-into-holes; crossed arm 1A5, non-crossed arm 2F6; also called CCL2-0055; P1AA3402) VH 1: QEQLVESGGDLVKPEGSLTLTCTASGFSFSTSYWMCWVRQAPGKGLELIACISSSIGVTYYASWAEGRFTISKTSSTTVTLQMTSLTVADTATYFCARTTDDNWNVGFNLWGPGTLVTVSS VL 1: AYDMTQTPASVEVGVGGTVTIKCQASQSIGNRYLSWYQQKPGQPPKLLIYGTSTLASGVSSRFKGSGSGTQFTLTISGVESADSATYYCQQGATISYLDNAFGGGTEVVVK VH 2: QSLEESGGGLVQPEGSLTLTCTASGFSFNNNYYMCWVRQAPGKGLEWIGCISTDDSNTHYASWAQGRFTISKASSTALTLQVAGLTVADMATYFCARDAHFTSYGYGFDLWGPGTLVTVSS VL 2: DIVMTQTPASVSAAVGGTVSINCRASEDIENLVAWYQQKPGQPPKLLIYQASKLASGVPSRFKGSGSGAEFTLTIGDLESADAATYYCQGDYGSGWIMYSFGGGTDLVVK"

# Molecular target: T1, human FcγRIIb receptor on CHO-K1 cells …
# Assay: cell-based or functional assay
Depletion level max (%) of CCL2 from the supernatant,EC50 [nM] of CCL2 depletion,EC90 [nM] of CCL2 depletion,Binder
82%,0.14 nM,0.4 nM,P1AF8143 (CKLO2-CB-GG02) (bispecific antibody) chain 1: not shown chain 2: QVQLVQSGAEVKKPGSSVKVSCKASGLTISHTYMHWVRQAPGQGLEWMGRIDPDNHNTKFDPKFQGRVTITADTSTSTAYMELSSLRSEDTAVYYCARGVFGFFEHWGQGTTVTVSSASTKGPSVFPLAPSSKSTSGGTAALGCLVKDYFPEPVTVSWNSGALTSGVHTFPAVLQSSGLYSLSSVVTVPSSSLGTQTYICNVNHKPSNTKVDKKVEPKSCGGSGGGGSGGDKTHTCPPCPAPEYLGGDSVFLFPPKPKDVLMISRTPEVTCVVIDVSHEDPEVKFNWYVDGVEVHNAKTKPREEQYNSTYRVVSVLPVLHRDWLNGKEYKCKVSNKALPKPIEKTISKAKGQRREPQVYTLPPCRDELTKNQVSLWCLVKGFYPSDIAVEWESNGQPENNYKTTPPVLDSDGSFFLYSKLTVDKSRWQQGNVFSCSVLHEALHAHTTRKELSLSPGKGGSGGGGSGGDIQMTQSPSSLSASVGDRVTITCKAFEDIYNRRAWYQQKPGKAPKLLIHGATSLEHGVPSRFSGSGSGTDYTLTISSLQPEDFATYYCQQFWSAPYTFGGGTKVEIKRTVAAPSVFIFPPSDEQLKSGTASVVCLLNNFYPREAKVQWKVDNALQSGNSQESVTEQDSKDSTYSLSSTLTLSKADYEKHKVYACEVTHQGLSSPVTKSFNRGEC
45%,0.6 nM,~30 nM,CKLO2-GG02 (=P1AF8139) (bispecific antibody) heavy 1: DIQMTQSPSSLSASVGDRVTITCKAFEDIYNRRAWYQQKPGKAPKLLIHGATSLEHGVPSRFSGSGSGTDYTLTISSLQPEDFATYYCQQFWSAPYTFGGGTKVEIKSSASTKGPSVFPLAPSSKSTSGGTAALGCLVKDYFPEPVTVSWNSGALTSGVHTFPAVLQSSGLYSLSSVVTVPSSSLGTQTYICNVNHKPSNTKVDKKVEPKSCDKTHTCPPCPAPEYLGGDSVFLFPPKPKDVLMISRTPEVTCVVIDVSHEDPEVKFNWYVDGVEVHNAKTKPREEQYNSTYRVVSVLPVLHRDWLNGKEYKCKVSNKALPKPIEKTISKAKGQRREPQVYTLPPCRDELTKNQVSLWCLVKGFYPSDIAVEWESNGQPENNYKTTPPVLDSDGSFFLYSKLTVDKSRWQQGNVFSCSVLHEALHAHTTRKELSLSP heavy 2: not shown light 1: QVQLVQSGAEVKKPGSSVKVSCKASGLTISHTYMHWVRQAPGQGLEWMGRIDPDNHNTKFDPKFQGRVTITADTSTSTAYMELSSLRSEDTAVYYCARGVFGFFEHWGQGTTVTVSSASVAAPSVFIFPPSDEQLKSGTASVVCLLNNFYPREAKVQWKVDNALQSGNSQESVTEQDSKDSTYSLSSTLTLSKADYEKHKVYACEVTHQGLSSPVTKSFNRGEC light 2: EIVLTQSPATLSLSPGERATLSCRASQHVSDAYLAWYQQKPGQAPRLLIYDASDRAEGVPARFSGSGSGTDFTLTISSLEPEDFAVYYCHQYIHLHSFTFGQGTKVEIKRTVAAPSVFIFPPSDRKLKSGTASVVCLLNNFYPREAKVQWKVDNALQSGNSQESVTEQDSKDSTYSLSSTLTLSKADYEKHKVYACEVTHQGLSSPVTKSFNRGEC
